Substitutions are numbered along the chain they refer to. Numbers in names are those of the source.
How the values were obtained:
[1] = biological target: T1, human anti-Müllerian hormone type II receptor (AMHR-II) on COV434 cells (human, UniProt Q16671 18-573); experiment: flow cytometry on COV434 WT cells, antibody at 10 µg/ml
T1 construct: Receptor at the surface of the COV434 AMHR-II transfected line (about 20000 receptors) or the COV434 WT line (about 2000 receptors); also called AMHR2; AMHR-II surface receptor
T1 sequence: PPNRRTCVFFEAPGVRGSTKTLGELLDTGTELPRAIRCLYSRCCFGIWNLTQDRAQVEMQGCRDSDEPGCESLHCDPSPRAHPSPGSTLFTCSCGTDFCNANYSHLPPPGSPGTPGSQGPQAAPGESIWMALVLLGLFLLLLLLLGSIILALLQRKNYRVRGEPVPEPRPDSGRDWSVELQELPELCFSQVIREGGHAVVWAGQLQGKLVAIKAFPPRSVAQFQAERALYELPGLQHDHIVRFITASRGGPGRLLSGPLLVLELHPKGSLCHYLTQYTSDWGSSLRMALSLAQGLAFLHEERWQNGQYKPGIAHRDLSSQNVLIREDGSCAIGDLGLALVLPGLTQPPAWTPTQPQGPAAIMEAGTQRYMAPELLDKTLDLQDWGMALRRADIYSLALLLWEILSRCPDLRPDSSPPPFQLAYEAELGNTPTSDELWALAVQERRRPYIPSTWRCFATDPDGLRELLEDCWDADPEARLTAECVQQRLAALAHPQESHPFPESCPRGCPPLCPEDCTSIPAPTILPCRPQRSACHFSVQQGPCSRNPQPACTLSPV
Method: B) FACS histogram profiles of COV434WT staining at 10 μg/ml of antibodies. C) Percentage of COV434 WT cell staining with the antibodies.
(§1) The COV434 AMHR-II transfected and the COV434 WT cell lines were maintained in DMEM/GlutaMax (Gibco) supplemented with 10% FBS, penicillin 100 U/ml and Streptomycin 100 μg/ml. Geneticin at 666 μg/ml was added for the COV434 AMHR-II transfected cell line. […] After washes, Phycoerythrin-conjugated anti-human IgG antibody (1:200, Beckman-Coulter) was added for 1 hour at room temperature. FACS analysis of the resuspended cells was done on a BD Accuri™ C6 flow cytometer (BD Bioscience).
(§2) FACS analysis with COV434-AMHR-II transfected cell line is described in FIG. 16. […] The binding capacity of these variants was also assayed on the low expressing AMHR-II COV434 WT cell line.

[2] = biological target: T1, human anti-Müllerian hormone type II …; experiment: flow cytometry on COV434 AMHR-II transfected cells, Hill slope fit
Method: (§3) Binding was determined by FACS analysis in the range of concentrations 0.034 to 8 μg/ml. Binding data curves were analyzed used specific binding with Hill slope equation from GraphPad Prism.
as §1, §2

[3] = biological target: T2, AMHR-II-ECD-Fc (R&D System) (human, UniProt Q16671 18-149); experiment: SPR (Bia3000), AMHR-II-ECD-Fc immobilised; against parental murine 12G4
T2 construct: Bought construct; also called recombinant AMHR-II; AMHR-II recombinant protein; not shown: Fc part of the bought AMHR-II-ECD-Fc (R&D System)
Method: (§4) Immobilization of AMHRII was performed on a Bia3000 apparatus at 25° C. in HBS-EP (HEPES 10 mM, NaCl 150 mM, EDTA 3 mM, P20 surfactant 0.005%) at […] flow rate on CM5 sensor chip using EDC/NHS (1-Ethyl-3-3-dimethylaminopropyl carbodiimidehydrochloride) activation according to the manufacturer's instructions (GEHealthcare). Briefly, carboxyl functions of CM5 sensor chip were activated with 0.4M EDC/0.1M NHS during 7 min. A solution of AMHR-II-ECD-Fc (R&D System) at 2.5 μg/ml in sodium acetate buffer was injected during 12 min. An injection of 1M ethanolamine hydrochloride was used to neutralize the activation. […] A control reference surface was prepared using the same chemical treatment of without injection of AMHRII.
(§5) Antibodies at different concentrations (from 0.5 nM to 133 nM) were injected during 180s on AMHRII-coated flowcell and the control flowcell. After a dissociation step of 400s in running buffer, sensor surfaces were regenerated using 5 μl of Glycine-HCl pH1.7. All the sensorgrams were corrected by subtracting the low signal from the control reference surface. Kinetic parameters were evaluated from the sensorgrams using a Langmuir 1:1 fitting model on the BiaEvaluation 4.2 software.

[4] = biological target: T2, AMHR-II-ECD-Fc (R&D System); experiment: ELISA, 50 ng per well AMHR-II-ECD-Fc coated, HRP anti-human F(ab')2 detection
Method: ELISA plates (96 wells, Maxisorp, NUnc) were coated overnight at +4° C. with 50 ng per well of AMHR-II-ECD-Fc (R&D System). Coated ELISA plates were blocked with PBS-BSA 4% for 2 hours at 37° C. and washed three times with PBS-Tween20 0.05%. […] The bound anti-AMHR-II antibodies were detected by adding HRP-conjugated F(ab′)2 goat anti-human F(ab′2) fragment specific (Interchim) diluted at 1:10000 and incubated for one hour at 37° C. Revelation was done with TMB (Sigma) and the reaction was stopped by adding H2SO4 1N (v:v). Absorbances were measured at 450 nm and binding data curves were analysis using GraphPad Prism.

[5] = biological target: T2, AMHR-II-ECD-Fc (R&D System); experiment: SPR (Bia3000), AMHR-II-ECD-Fc immobilised on CM5, antibody injected, Langmuir 1:1 fit
Method: as §4, §5

[6] = biological target: T1, human anti-Müllerian hormone type II …; experiment: flow cytometry on COV434 AMHR-II transfected cells
Method: as §3, §1, §2

[7] = biological target: T1, human anti-Müllerian hormone type II …; experiment: flow cytometry on COV434 AMHR2 transfected cells, 0.034 to 8 µg/ml
Method: as §3, §1, §2

B1: humanized low fucose 3C23K antibody (antibody, human IgG1, kappa, V domains shown)
VH: QVRLVQSGAEVKKPGASVKVSCKASGYTFTSYHIHWVRQAPGQRLEWMGWIYPGDDSTKYSQKFQGRVTITRDTSASTAYMELSSLRSEDTAVYYCTRGDRFAYWGQGTLVTVSS
VL: DIQMTQSPSTLSASVGDRVTITCRASSSVRYIAWYQQKPGKAPKLLTYPTSSLKSGVPSRFSGSGSGTEFTLTISSLQPDDFATYYCLQWSSYPWTFGGGTKVEIKR
notes: Humanized from murine 12G4, low fucose, prepared as in WO2011/141653A1; also called unconjugated 3C23K; 3C23K unconjugated; copies: 2 + 2
percent of COV434 WT cells stained [1]: 9.8% | Kapparent [2]: 2.2 µg/mL | fold higher association rate against 12G4 [3]: 5 fold | fold lower dissociation rate against 12G4 [3]: 3 fold | EC50 [4]: 18 pM | Ka [5]: 1.81e+10 M⁻¹ | Kd [5]: 55.3 pM | koff [5]: 6.93e-06 s⁻¹ | kon [5]: 125000 M⁻¹ s⁻¹

B2: K4D-24 (antibody, V domains shown)
VH: B1 VH with Q1R
VL: DIQMTQSPSTLSASVGDRVTITCRASSSVRYIAWYQQKPGKAPKLLTYPTSSLKSGVPSRFSGSGSGTEFTLTISSLQPDDFATYYCLQWSSYPWTFGGGTKVEIK
notes: Variant of 3C23K with H-Q1R (Kabat)
fold improvement of Kapparent against 3C23K [6]: 20 fold | percent of COV434 WT cells stained [1]: 76.8% | Kapparent [2]: 0.098 µg/mL | fold affinity improvement against 3C23K [7]: 22 fold

B3: 6C59 (antibody, V domains shown)
VH: B1 VH with Q1R
VL: B2 VL with S27P, S28P
notes: Variant of 3C23K with H-Q1R, L-S27P and L-S28P (Kabat)
fold improvement of Kapparent against 3C23K [6]: 40 fold | percent of COV434 WT cells stained [1]: 82.2% | Kapparent [2]: 0.05 µg/mL

B4: murine 12G4 antibody (antibody, from another filing, V domains shown)
VH: QVQLQQSGPELVKPGASVRMSCKASGYTFTSYHIHWVKQRPGQGLEWIGWIYPGDDSTKYNEKFKGKTTLTADKSSSTAYMLLSSLTSEDSAIYFCTRGDRFAYWGQGTLVTVSA
VL: QIVLTQSPAIMSASLGEGITLTCSASSSVRYIHWYQQKSGTSPKLLIYSTSNLASGVPSRFSGSGSGTFHSLTISSVEAEDAADYYCLQWSSYPWTFGGGTKLEIK
Ka [5]: 1.27e+09 M⁻¹ | Kd [5]: 788 pM | koff [5]: 2.28e-05 s⁻¹ | kon [5]: 28900 M⁻¹ s⁻¹
